The record followed here is patent US20020137213A1 (published 2002).

The chains are these.
T1: coxsackie adenovirus receptor (CAR), human, on HeLa cells (human, UniProt P78310 20-365)
T1 sequence: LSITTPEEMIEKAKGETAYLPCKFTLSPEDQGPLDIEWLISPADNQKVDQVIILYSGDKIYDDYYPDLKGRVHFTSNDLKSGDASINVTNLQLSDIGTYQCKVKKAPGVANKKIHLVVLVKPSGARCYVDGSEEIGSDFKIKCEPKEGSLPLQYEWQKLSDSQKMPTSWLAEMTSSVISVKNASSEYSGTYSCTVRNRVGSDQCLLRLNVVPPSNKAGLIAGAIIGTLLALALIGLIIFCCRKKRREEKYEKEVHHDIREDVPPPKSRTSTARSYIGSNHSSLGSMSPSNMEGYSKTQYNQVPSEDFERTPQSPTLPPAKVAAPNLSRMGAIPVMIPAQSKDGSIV

B1: wildtype Ad5 fiber protein (other)
chain: MKRARPSEDTFNPVYPYDTETGPPTVPFLTPPFVSPNGFQESPPGVLSLRLSEPLVTSNGMLALKMGNGLSLDEAGNLTSQNVTTVSPPLKKTKSNINLEISAPLTVTSEALTVAAAAPLMVAGNTLTMQSQAPLTVHDSKLSIATQGPLTVSEGKLALQTSGPLTTTDSSTLTITASPPLTTATGSLGIDLKEPIYTQNGKLGLKYGAPLHVTDDLNTLTVATGPGVTINNTSLQTKVTGALGFDSQGNMQLNVAGGLRIDSQNRRLILDVSYPFDAQNQLNLRLGQGPLFINSAHNLDINYNKGLYLFTASNNSKKLEVNLSTAKGLMFDATAIAINAGDGLEFGSPNAPNTNPLKTKIGHGLEFDSNKAMVPKLGTGLSFDSTGAITVGNKNNDKLTLWTTPAPSPNCRLNAEKDAKLTLVLTKCGSQILATVSVLAVKGSLAPISGTVQSAHLIIRFDENGVLLNNSFLDPEYWNFRNGDLTEGTAYTNAVGFMPNLSAYPKSHGKTAKSNIVSQVYLNGDKTKPVTLTITLNGTQETGDTTPSAYSMSFSWDWSGHNYINEIFATSSYTFSYIAQE
B2: KO4+5 mutant Ad5 fiber protein (ΔG509, K510, ΔG538, T539) (other)
chain: MKRARPSEDTFNPVYPYDTETGPPTVPFLTPPFVSPNGFQESPPGVLSLRLSEPLVTSNGMLALKMGNGLSLDEAGNLTSQNVTTVSPPLKKTKSNINLEISAPLTVTSEALTVAAAAPLMVAGNTLTMQSQAPLTVHDSKLSIATQGPLTVSEGKLALQTSGPLTTTDSSTLTITASPPLTTATGSLGIDLKEPIYTQNGKLGLKYGAPLHVTDDLNTLTVATGPGVTINNTSLQTKVTGALGFDSQGNMQLNVAGGLRIDSQNRRLILDVSYPFDAQNQLNLRLGQGPLFINSAHNLDINYNKGLYLFTASNNSKKLEVNLSTAKGLMFDATAIAINAGDGLEFGSPNAPNTNPLKTKIGHGLEFDSNKAMVPKLGTGLSFDSTGAITVGNKNNDKLTLWTTPAPSPNCRLNAEKDAKLTLVLTKCGSQILATVSVLAVKGSLAPISGTVQSAHLIIRFDENGVLLNNSFLDPEYWNFRNGDLTEGTAYTNAVGFMPNLSAYPKSHTAKSNIVSQVYLNGDKTKPVTLTITLNQETGDTTPSAYSMSFSWDWSGHNYINEIFATSSYTFSYIAQE

Bounds are passed on as bounds.

The target in the first assay is T1, coxsackie adenovirus receptor (CAR), …. As to the kind of experiment: cell-based or functional assay.
As to B1, the “Mean % wt βgal activity, transduction of Hela cells” value came to 100 % wt.
Take B2: the “Mean % wt βgal activity, transduction of Hela cells” value worked out at 91.1 % wt.

In another assay the target is coxsackie adenovirus receptor (CAR), human, on HeLa cells (human) (UniProt P78310). As to the kind of experiment: cell-based or functional assay.
In the case of “KO1 mutant Ad5 fiber protein (S408E, P409A) (from UniProt P11818 1-581)”, the Mean % wt βgal activity, transduction of Hela cells was 1.4 % wt; the Representative avg βgal activity (RLU/ug protein), transduction of Hela cells at 1000 particles per cell (RLU/ug protein) stood at 7620; the fold reduction of β-galactosidase activity against wildtype fiber, Hela cells came to 70 fold.
As to “KO1+2 mutant Ad5 fiber protein (S408E, P409A, ΔV441, K442) (from UniProt P11818 1-581)”, the Mean % wt βgal activity, transduction of Hela cells came to 0.1 % wt; the Representative avg βgal activity (RLU/ug protein), transduction of Hela cells at 1000 particles per cell (RLU/ug protein) was 472; the fold reduction in fiber-mediated gene transfer, Hela cells was determined as 1000 fold; the fold reduction of β-galactosidase activity against wildtype fiber, Hela cells is 1000 fold.
Regarding “KO2 mutant Ad5 fiber protein (ΔV441, K442) (from UniProt P11818 1-581)”, the Mean % wt βgal activity, transduction of Hela cells amounted to 0.6 % wt; the Representative avg βgal activity (RLU/ug protein), transduction of Hela cells at 1000 particles per cell (RLU/ug protein) was found to be 3320; the decrease in transduction efficiency, Hela cells is over 160 fold; the fold reduction of β-galactosidase activity against wildtype fiber, Hela cells was 167 fold.
The matching figures for “KO2a mutant Ad5 fiber protein (ΔV441) (from UniProt P11818 1-581)”: 0.6 % wt, 4000, over 160 fold and 167 fold.
The molecule “KO2b mutant Ad5 fiber protein (ΔK442) (from UniProt P11818 1-581)” came in with a Mean % wt βgal activity, transduction of Hela cells of 8.3 % wt and a Representative avg βgal activity (RLU/ug protein), transduction of Hela cells at 1000 particles per cell (RLU/ug protein) of 44400.
“KO2c mutant Ad5 fiber protein (V441A, K442A) (from UniProt P11818 1-581)” came in with a Mean % wt βgal activity, transduction of Hela cells of 8.5 % wt; a Representative avg βgal activity (RLU/ug protein), transduction of Hela cells at 1000 particles per cell (RLU/ug protein) of 53300; a fold reduction in fiber-mediated gene transfer, Hela cells of 12 fold.
The molecule “KO3 mutant Ad5 fiber protein (R460E) (from UniProt P11818 1-581)” displayed a Mean % wt βgal activity, transduction of Hela cells of 63.3 % wt and a Representative avg βgal activity (RLU/ug protein), transduction of Hela cells at 1000 particles per cell (RLU/ug protein) of 359000.
As for “KO4 mutant Ad5 fiber protein (ΔG509, K510) (from UniProt P11818 1-581)”, the Mean % wt βgal activity, transduction of Hela cells is 38.2 % wt and the Representative avg βgal activity (RLU/ug protein), transduction of Hela cells at 1000 particles per cell (RLU/ug protein) turned out to be 213000.
The matching figures for “KO5 mutant Ad5 fiber protein (ΔG538, T539) (from UniProt P11818 1-581)”: 58.3 % wt and 331000.
In the case of “KO8 mutant Ad5 fiber protein (N464T) (from UniProt P11818 1-581)”, the Mean % wt βgal activity, transduction of Hela cells is 92.6 % wt and the Representative avg βgal activity (RLU/ug protein), transduction of Hela cells at 1000 particles per cell (RLU/ug protein) turned out to be 470000.
“KO9 mutant Ad5 fiber protein (V466H) (from UniProt P11818 1-581)” gave a Mean % wt βgal activity, transduction of Hela cells of 80.9 % wt and a Representative avg βgal activity (RLU/ug protein), transduction of Hela cells at 1000 particles per cell (RLU/ug protein) of 391000.
“KO10 mutant Ad5 fiber protein (P505A) (from UniProt P11818 1-581)” yielded a Mean % wt βgal activity, transduction of Hela cells of 79.6 % wt and a Representative avg βgal activity (RLU/ug protein), transduction of Hela cells at 1000 particles per cell (RLU/ug protein) of 447000.
For “KO11 mutant Ad5 fiber protein (Δ404-581, knob replaced by GCN4 isoleucine 31 amino acid peptide) (from UniProt P11818 1-403)”, the Mean % wt βgal activity, transduction of Hela cells is 0.8 % wt; the Representative avg βgal activity (RLU/ug protein), transduction of Hela cells at 1000 particles per cell (RLU/ug protein) was 4520; the fold reduction of β-galactosidase activity against wildtype fiber, Hela cells came out at 125 fold.
